Experimental data as given in patent US20110183358A1 (published 2011).
Blank lines part the entries; values can stand above or below the molecule they belong to. Square brackets hold non-standard residues; d marks the D form. Ends that are not written are not given here. * marks the point of attachment. Phe(4-Cl) = N[C@@H](Cc1ccc(Cl)cc1)C(=O)O; 2Nal = N[C@@H](Cc1ccc2ccccc2c1)C(=O)O; d2Nal = N[C@H](Cc1ccc2ccccc2c1)C(=O)O; Fmoc = O=C(OCC1c2ccccc2-c2ccccc21)*; 2Thi = N[C@@H](Cc1cccs1)C(=O)O; Cha = N[C@@H](CC1CCCCC1)C(=O)O; d2Thi = N[C@H](Cc1cccs1)C(=O)O; dCha = N[C@H](CC1CCCCC1)C(=O)O

How the values were obtained:
[1] = molecular target: glutathione-S-transferase-BIR2 fusion protein (GST-BIR2) (human) (UniProt P98170); test: fluorescence polarization; 400 nM rhodamine-SMAC, GST-BIR2 0.05 to 20 µM
glutathione-S-transferase-BIR2 fusion protein (GST-BIR2) (human), sequence (P98170 124-240): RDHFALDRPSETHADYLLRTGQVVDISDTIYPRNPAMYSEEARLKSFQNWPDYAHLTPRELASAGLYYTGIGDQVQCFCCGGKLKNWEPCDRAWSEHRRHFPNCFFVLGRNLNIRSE

GST-BIR3RING (human) = GST-BIR3RING (human) (UniProt P98170); test: fluorescence polarization; 400 nM rhodamine-SMAC, GST-BIR3RING 0.02 to 6 µM
GST-BIR3RING (human), sequence (P98170 243-497): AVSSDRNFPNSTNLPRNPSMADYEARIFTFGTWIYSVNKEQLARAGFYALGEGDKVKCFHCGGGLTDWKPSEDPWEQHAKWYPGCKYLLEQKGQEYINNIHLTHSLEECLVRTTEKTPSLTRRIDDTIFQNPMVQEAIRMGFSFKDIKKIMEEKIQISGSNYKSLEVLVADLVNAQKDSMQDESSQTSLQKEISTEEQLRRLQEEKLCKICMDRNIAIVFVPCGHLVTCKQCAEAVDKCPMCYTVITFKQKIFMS

GST-XIAP [2] = molecular target: T1, GST-XIAP (human, UniProt P98170 1-497); test: cell-based or functional assay
T1 sequence (P98170 whole entry): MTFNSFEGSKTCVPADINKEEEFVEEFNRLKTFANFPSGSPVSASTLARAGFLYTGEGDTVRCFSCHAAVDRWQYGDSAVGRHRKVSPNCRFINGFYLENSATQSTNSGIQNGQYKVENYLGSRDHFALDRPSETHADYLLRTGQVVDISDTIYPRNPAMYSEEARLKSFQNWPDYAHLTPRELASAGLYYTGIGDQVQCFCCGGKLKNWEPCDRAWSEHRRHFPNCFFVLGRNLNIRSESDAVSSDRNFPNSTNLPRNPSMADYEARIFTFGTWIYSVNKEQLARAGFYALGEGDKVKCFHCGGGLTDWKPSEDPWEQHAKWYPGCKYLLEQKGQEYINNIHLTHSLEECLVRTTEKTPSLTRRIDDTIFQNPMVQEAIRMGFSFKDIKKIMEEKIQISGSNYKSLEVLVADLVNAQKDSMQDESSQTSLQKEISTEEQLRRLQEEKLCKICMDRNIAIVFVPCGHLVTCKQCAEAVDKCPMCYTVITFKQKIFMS

full length XIAP = full length XIAP (human, UniProt P98170 1-497); test: cell-based or functional assay
full length XIAP, sequence (P98170 whole entry): as above

GST-XIAP [3] = molecular target: T1, GST-XIAP; test: cell-based or functional assay; remark: listed apart in the source

Molecule: AWW[2Thi] (not fully specified) [1332/1352-1]
ratio of Vmax for hydrolysis of Ac-DEVD-AFC in the presence and absence of the species (GST-XIAP [2]): 2.4 ratio

Molecule: [2Nal][d2Thi][dF][dW] [1352-72]
ratio of Vmax for hydrolysis of Ac-DEVD-AFC in the presence and absence of the species (GST-XIAP [2]): 2.4 ratio

Molecule: A[dW]W[2Thi] [1352-6]
ratio of Vmax for hydrolysis of Ac-DEVD-AFC in the presence and absence of the species (GST-XIAP [2]): 2.4 ratio

Molecule: [Cha][d2Nal]W[2Thi] [1332-41]
ratio of Vmax for hydrolysis of Ac-DEVD-AFC in the presence and absence of the species (GST-XIAP [2]): 2.4 ratio

Molecule: [2Nal][dCha]W[dW] [1352-66]
ratio of Vmax for hydrolysis of Ac-DEVD-AFC in the presence and absence of the species (GST-XIAP [2]): 2.4 ratio

Molecule: H-AVPIAQK-NH2 [SMAC peptide (H-Ala-Val-Pro-Ile-Ala-Gln-Lys-NH2)]
Vmax(mix + casp3 + XIAP)/Vmax(casp3 + XIAP) (GST-XIAP [3]): 3.8 ratio

Molecule: A[dW]W[2Thi] [1332/1352-47]
ratio of Vmax for hydrolysis of Ac-DEVD-AFC in the presence and absence of the species (GST-XIAP [2]): 2.4 ratio

Results, then the molecule that gave them:

Kd [1]: 20 µM
Kd (GST-BIR3RING (human)): 0.28 µM
Molecule: rhodamine labeled SMAC (rhodamine-SMAC) (peptide)

EC50 (amount of compound necessary to restore caspase-3 activity to 50% of Vmax) (full length XIAP): 24 µM
Relative Potency (against SMAC AVPI tetrapeptide) (full length XIAP): 5.2 fold
Molecule: [2Thi][2Nal][Phe(4-Cl)]K(Fmoc) [TPI 792-33]

EC50 (amount of compound necessary to restore caspase-3 activity to 50% of Vmax) (full length XIAP): 51 µM
Relative Potency (against SMAC AVPI tetrapeptide) (full length XIAP): 2.5 fold
Molecule: [2Thi][2Nal][dK](Fmoc)K(Fmoc) [TPI 792-35]
